Assay results reported in patent US20240279310A1 (ALPINE IMMUNE SCIENCES, published 2024).
Residue numbers refer to the chain shown, from its start. Names may count otherwise. Read-outs that look alike come from different tables or passages of the source.

B1: 26 TACI CRD2-Fc (TACI vTD SEQ ID NO:26, K77E/F78Y/Y102D; Fc fusion SEQ ID NO: 167) (Fc fusion)
chain: SLSCRKEQGEYYDHLLRDCISCASICGQHPKQCADFCENKLRSGSGGGGSEPKSSDKTHTCPPCPAPEAEGAPSVFLFPPKPKDTLMISRTPEVTCVVVDVSHEDPEVKFNWYVDGVEVHNAKTKPREEQYNSTYRVVSVLTVLHQDWLNGKEYKCKVSNKALPAPIEKTISKAKGQPREPQVYTLPPSRDELTKNQVSLTCLVKGFYPSDIAVEWESNGQPENNYKTTPPVLDSDGSFFLYSKLTVDKSRWQQGNVFSCSVMHEALHNHYTQKSLSLSPG
B2: 13 TACI CRD2-Fc, WT TACI (68-110)-Fc (TACI 68-110, SEQ ID NO: 13, TACI-Fc SEQ ID NO: 171) (Fc fusion)
chain: B1 chain with E10K, Y11F, D35Y
B3: 7 TACI CRD1/CRD2-Fc (Fc fusion)
TACI vTD-linker-Fc chain: VAMRSCPEEQYWDPLLGTCMSCKTICNHQSQRTCAAFCRSLSCRKEQGKFYDHLLRDCISCASICGQHPKQCDYFCENKLRSGSGGGGSEPKSSDKTHTCPPCPAPEAEGAPSVFLFPPKPKDTLMISRTPEVTCVVVDVSHEDPEVKFNWYVDGVEVHNAKTKPREEQYNSTYRVVSVLTVLHQDWLNGKEYKCKVSNKALPAPIEKTISKAKGQPREPQVYTLPPSRDELTKNQVSLTCLVKGFYPSDIAVEWESNGQPENNYKTTPPVLDSDGSFFLYSKLTVDKSRWQQGNVFSCSVMHEALHNHYTQKSLSLSPG

Tests used:
Assay in all cases: cell-based or functional assay
[1] = biological target: T1, recombinant human BAFF (BioLegend) (human, UniProt Q9Y275 134-285)
[2] = biological target: T2, recombinant human APRIL (Tonbo Biosciences) (human, UniProt O75888 105-250, limits assumed)
T2 sequence (looked up): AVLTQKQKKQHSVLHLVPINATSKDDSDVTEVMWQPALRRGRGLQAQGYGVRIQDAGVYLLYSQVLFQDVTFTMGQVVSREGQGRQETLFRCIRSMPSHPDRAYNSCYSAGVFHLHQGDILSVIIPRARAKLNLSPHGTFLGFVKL

[3] = biological target: T3, recombinant mouse BAFF (R & D Systems) (mouse, UniProt Q9WU72 127-309)
[4] = biological target: T1, recombinant human BAFF (BioLegend); remark: listed apart in the source
[5] = biological target: T2, recombinant human APRIL (Tonbo …); remark: listed apart in the source
[6] = biological target: T1, recombinant human BAFF (BioLegend); remark: listed apart in the source
[7] = biological target: T2, recombinant human APRIL (Tonbo …); remark: listed apart in the source
[8] = biological target: T1, recombinant human BAFF (BioLegend); remark: listed apart in the source
[9] = biological target: T2, recombinant human APRIL (Tonbo …); remark: listed apart in the source
cynomolgus monkey BAFF = cynomolgus monkey BAFF (cynomolgus monkey, UniProt A0A2K5V2X4 134-285)
[10] = biological target: T4, recombinant mouse APRIL (ProSci Incorporated) (mouse, UniProt Q9D777 96-241, limits assumed)
T4 sequence (looked up): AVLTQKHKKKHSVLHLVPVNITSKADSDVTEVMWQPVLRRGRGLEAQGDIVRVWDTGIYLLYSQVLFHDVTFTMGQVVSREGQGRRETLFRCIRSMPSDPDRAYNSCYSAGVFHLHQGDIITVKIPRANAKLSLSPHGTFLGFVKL

[11] = biological target: T1, recombinant human BAFF (BioLegend); remark: listed apart in the source
cynomolgus monkey APRIL = cynomolgus monkey APRIL (cynomolgus monkey)
rat APRIL = biological target: T5, rat APRIL (rat, UniProt A0A8J8XC20 96-241)
T5 sequence: T4 sequence (looked up) with H11Q, V19I, V29M, V37A, I50T, W54R, R94K

[12] = biological target: T2, recombinant human APRIL (Tonbo …); remark: listed apart in the source
[13] = biological target: T3, recombinant mouse BAFF (R & D Systems); remark: listed apart in the source
rat BAFF = rat BAFF (rat)
[14] = biological target: T1, recombinant human BAFF (BioLegend); remark: listed apart in the source
[15] = biological target: T2, recombinant human APRIL (Tonbo …); remark: listed apart in the source
[16] = biological target: T1, recombinant human BAFF (BioLegend); remark: listed apart in the source
[17] = biological target: T4, recombinant mouse APRIL (ProSci …); remark: listed apart in the source
[18] = biological target: T1, recombinant human BAFF (BioLegend); remark: listed apart in the source
[19] = biological target: T2, recombinant human APRIL (Tonbo …); remark: listed apart in the source

T3 sequence (Q9WU72 127-309 limits assumed): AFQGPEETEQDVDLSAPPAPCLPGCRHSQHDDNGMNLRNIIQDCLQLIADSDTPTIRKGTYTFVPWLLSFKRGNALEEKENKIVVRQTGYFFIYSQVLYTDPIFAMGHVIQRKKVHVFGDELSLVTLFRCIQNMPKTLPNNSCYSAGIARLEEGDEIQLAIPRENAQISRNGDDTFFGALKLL

Binder	BAFF IC50 (pM) [1] [pM]	BAFF IC50 (Δ WT) [1] [ratio]	APRIL IC50 (pM) [2] [pM]	APRIL IC50 (Δ WT) [2] [ratio]	IC50 (read off the curve) [3] [nM]	IC50 (nM) BAFF [4] [nM]	IC50 BAFF (Δ TACI 30-110-Fc) [4] [ratio]	IC50 (nM) APRIL [5] [nM]	IC50 APRIL (Δ TACI 30-110-Fc) [5] [ratio]	IC50 (read off the curve) [6] [nM]	IC50 (read off the curve) [18] [nM]	also measured
B1	1550	0.84	9210	0.75	~1	1220	0.21	179	0.05	~2	–	IC50 (read off the curve) [7]: ~0.6 nM; IC50 (nM) BAFF [8]: 1270 nM; IC50 BAFF (Δ TACI 30-110) [8]: 0.28 ratio; IC50 (nM) APRIL [9]: 214 nM; IC50 APRIL (Δ TACI 30-110) [9]: 0.05 ratio; BAFF IC50 (nM), signal inhibition in Jurkat/NF-κB/TACI cells (cynomolgus monkey BAFF): 1.9 nM; APRIL IC50 (nM), signal inhibition in Jurkat/NF-κB/TACI cells [10]: 24.5 nM; BAFF IC50 (nM), signal inhibition in Jurkat/NF-κB/TACI cells [11]: 2.8 nM; APRIL IC50 (nM), signal inhibition in Jurkat/NF-κB/TACI cells (cynomolgus monkey APRIL): 3.3 nM; APRIL IC50 (nM), signal inhibition in Jurkat/NF-κB/TACI cells (rat APRIL): 22.7 nM; APRIL IC50 (nM), signal inhibition in Jurkat/NF-κB/TACI cells [12]: 3.4 nM; BAFF IC50 (nM), signal inhibition in Jurkat/NF-κB/TACI cells [13]: 15.2 nM; BAFF IC50 (nM), signal inhibition in Jurkat/NF-κB/TACI cells (rat BAFF): 3.8 nM; IC50 (pM) BAFF [14]: 1340 pM; IC50 (pM) APRIL [15]: 1760 pM; IC50 value [16]: 0.078 µg/mL
B2	1850	1	12300	1	~5	1330	0.23	369	0.1	~3	~2	IC50 (read off the curve) [17]: ~0.7 nM
B3	–	–	–	–	–	–	–	–	–	–	~2	IC50 (read off the curve) [19]: ~3 nM
